This assay concerns the target T1, Choline kinase alpha, full-length (FL) wild type (human, UniProt P35790 1-457).
T1 construct: Choline kinase alpha, unspliced variant ChoKα1, 457 residues, human, UniProt P35790; full length, up to Val457; Cleaved ChoKα constructs were the probes of the pull-downs; also called ChoKα; ChoKα1; source: E. coli Rosetta (DE3)pLysS, purified (HisTrap Ni2+ column, S-200 gel filtration); not shown: His6, N-terminal, cleaved; SUMO, N-terminal, cleaved
Description: SPR; SH3 domains immobilised on one CM5 chip, ChoKα injected in triplicate, 0.1 to 30 µM, 2 min, PBS pH 7.5, 30 µL/min; steady-state KD from RUmax. The conditions noted are these: both partners purified.

T1 sequence (P35790 whole entry, canonical isoform): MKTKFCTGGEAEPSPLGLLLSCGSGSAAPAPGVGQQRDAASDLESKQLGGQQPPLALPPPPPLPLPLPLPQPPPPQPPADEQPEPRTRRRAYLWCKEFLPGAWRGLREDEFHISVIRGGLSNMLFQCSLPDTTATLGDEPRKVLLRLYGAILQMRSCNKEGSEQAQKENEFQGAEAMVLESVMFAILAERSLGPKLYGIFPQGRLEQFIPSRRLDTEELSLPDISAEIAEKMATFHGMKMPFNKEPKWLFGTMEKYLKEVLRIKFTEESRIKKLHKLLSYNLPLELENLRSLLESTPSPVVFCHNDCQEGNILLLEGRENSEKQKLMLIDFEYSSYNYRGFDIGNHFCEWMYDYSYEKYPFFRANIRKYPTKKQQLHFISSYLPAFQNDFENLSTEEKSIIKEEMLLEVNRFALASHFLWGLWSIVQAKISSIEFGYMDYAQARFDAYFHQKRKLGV

B1: Hck SH3 domain (domain or fragment)
chain: not shown
notes: Src-family kinase Hck, SH3 domain; source: recombinant, purified
B1 had a Kd of 25.9 µM. In other words, the double-digit micromolar range.

As a reminder, the Kd is the concentration at which binding is half-saturated. Read a high Kd as a looser complex.

Source of the values: publication PMC6864063, “Molecular basis for the interaction between human choline kinase alpha and the SH3 domain of the c-Src tyrosine kinase” (Scientific Reports, 2019).
